# Test results reported in US20170022269A1 (AbbVie / Abbott, published 2017).
# Tests used:
# [1] = target: T1, Aβ(12-42) globulomer (human); experiment: dot blot densitometry, antibody 0.2 µg/ml; column Aβ(12-42) globulomer
# T1 construct: also called truncated Aβ(12-42) globulomer
# T1 peptide: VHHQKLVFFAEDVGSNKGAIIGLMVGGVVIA
# Description: (§1) Dot blot procedure: [0556] 1) 1 μl each of the different Aβ-standards (in their 5 serial dilutions) were dotted onto the nitrocellulose membrane in a distance of approximately 1 cm from each other. [0557] 2) The Aβ-standards dots were allowed to dry on the nitrocellulose membrane on air for at least 10 min at room temperature (RT)(=dot blot) [0558] 3) Blocking: [0559] The dot blot was incubated with 30 ml 5% low fat milk in TBS for 1.5 h at RT. [0560] 4) Washing: [0561] The blocking solution was discarded and the dot blot was incubated under shaking with 20 ml TTBS for 10 min at RT. [0562] 5) Antibody solution I: [0563] The washing buffer was discarded and the dot blot was incubated with antibody solution I for 2 h at RT [0564] 6) Washing: [0565] The antibody solution I was discarded and the dot blot was incubated under shaking with 20 ml TTBS for 10 min at RT. The washing solution was discarded and the dot blot was incubated under shaking with 20 ml TTBS for 10 min at RT. The washing solution was discarded and the dot blot was incubated under shaking with 20 ml TBS for 10 min at RT. [0566] 7) Antibody solution II: [0567] The washing buffer was discarded and the dot blot was incubated with antibody solution II overnight at RT [0568] 8) Washing: [0569] The antibody solution II was discarded and the dot blot was incubated under shaking with 20 ml TTBS for 10 min at RT. The washing solution was discarded and the dot blot was incubated under shaking with 20 ml TTBS for 10 min at RT. The washing solution was discarded and the dot blot was incubated under shaking with 20 ml TBS for 10 min at RT. [0570] 9) Development: [0571] The washing solution was discarded. The dot blot was developed with 10 ml BM Blue POD Substrate for 10 min. The development was stopped by intense washing of the dot blot with H₂O. Quantitative evaluation was done using a densitometric analysis (GS800 densitometer (BioRad) and software package Quantity one, Version […] (BioRad)) of the dot-intensity. […] This threshold value was determined for every dot-blot independently. The calculated value indicates the relation between recognition of Aβ(20-42) globulomer and the respective Aβ form for the antibody given
# [2] = target: T2, Aβ(1-40) monomer (human); experiment: dot blot on nitrocellulose
# T2 construct: also called monomeric Aβ(1-40); Aβ(1-40) monomer, 0.1% NH4OH
# Description: as §1
# [3] = target: T1, Aβ(12-42) globulomer; experiment: dot blot on nitrocellulose
# Description: as §1
# [4] = target: T3, sAPPα (Sigma) (UniProt P05067-4 18-612, limits assumed); experiment: dot blot on nitrocellulose
# T3 construct: Bought protein; also called Sigma cat. no; S9564
# Description: as §1
# [5] = target: T3, sAPPα (Sigma); experiment: dot blot densitometry, antibody 0.2 µg/ml; column sAPPα
# Description: as §1
# [6] = target: T2, Aβ(1-40) monomer; experiment: dot blot densitometry, antibody 0.2 µg/ml; column Aβ(1-40) monomer, 0.1% NaOH
# Description: as §1
# [7] = target: T2, Aβ(1-40) monomer; experiment: dot blot densitometry, antibody 0.2 µg/ml; column Aβ(1-40) monomer, 0.1% NH4OH
# Description: as §1
# [8] = target: T4, Aβ(20-42) globulomer (human); experiment: dot blot densitometry, antibody 0.2 µg/ml; column Aβ(20-42) globulomer (reference)
# T4 construct: also called truncated Aβ(20-42) globulomer; Aβ(20-42) globular oligomer
# T4 peptide: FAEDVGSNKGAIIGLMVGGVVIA
# Description: as §1
# [9] = target: T1, Aβ(12-42) globulomer; experiment: dot blot, antibody 0.2 µg/ml
# Description: Dot blot procedure: [0556] 1) 1 μl each of the different Aβ-standards (in their 5 serial dilutions) were dotted onto the nitrocellulose membrane in a distance of approximately 1 cm from each other. [0557] 2) The Aβ-standards dots were allowed to dry on the nitrocellulose membrane on air for at least 10 min at room temperature (RT)(=dot blot) [0558] 3) Blocking: [0559] The dot blot was incubated with 30 ml 5% low fat milk in TBS for 1.5 h at RT. [0560] 4) Washing: [0561] The blocking solution was discarded and the dot blot was incubated under shaking with 20 ml TTBS for 10 min at RT. [0562] 5) Antibody solution I: [0563] The washing buffer was discarded and the dot blot was incubated with antibody solution I for 2 h at RT [0564] 6) Washing: [0565] The antibody solution I was discarded and the dot blot was incubated under shaking with 20 ml TTBS for 10 min at RT. The washing solution was discarded and the dot blot was incubated under shaking with 20 ml TTBS for 10 min at RT. […] Quantitative evaluation was done using a densitometric analysis (GS800 densitometer (BioRad) and software package Quantity one, Version […] (BioRad)) of the dot-intensity. […] This threshold value was determined for every dot-blot independently. The calculated value indicates the relation between recognition of Aβ(20-42) globulomer and the respective Aβ form for the antibody given
# T3 sequence (P05067 other isoform, or with tags, fused parts or gaps limits assumed): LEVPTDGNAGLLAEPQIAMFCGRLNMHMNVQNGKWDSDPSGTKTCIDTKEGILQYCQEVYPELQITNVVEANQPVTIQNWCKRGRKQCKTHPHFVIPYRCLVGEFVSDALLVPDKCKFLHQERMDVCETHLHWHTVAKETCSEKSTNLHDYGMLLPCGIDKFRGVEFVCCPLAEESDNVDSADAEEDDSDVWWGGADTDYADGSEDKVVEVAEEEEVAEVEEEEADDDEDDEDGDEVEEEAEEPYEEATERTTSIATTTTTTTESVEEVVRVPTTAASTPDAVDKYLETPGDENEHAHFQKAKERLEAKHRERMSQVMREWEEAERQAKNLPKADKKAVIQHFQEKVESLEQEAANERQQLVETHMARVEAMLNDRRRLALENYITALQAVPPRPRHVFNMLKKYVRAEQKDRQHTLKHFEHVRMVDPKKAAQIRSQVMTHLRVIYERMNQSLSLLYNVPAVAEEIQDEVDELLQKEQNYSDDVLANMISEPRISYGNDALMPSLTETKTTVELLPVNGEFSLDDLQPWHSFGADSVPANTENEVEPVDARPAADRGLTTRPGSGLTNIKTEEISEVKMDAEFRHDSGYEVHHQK
# T2 sequence (peptide, as listed by the source): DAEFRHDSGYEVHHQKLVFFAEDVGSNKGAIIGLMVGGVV
Binder,relation between recognition of Aβ(20-42) globulomer and the respective Aβ form [1],binding result [2],binding result [3],binding result [4],relation between recognition of Aβ(20-42) globulomer and the respective Aβ form [5],relation between recognition of Aβ(20-42) globulomer and the respective Aβ form [6],relation between recognition of Aβ(20-42) globulomer and the respective Aβ form [7],relation between recognition of Aβ(20-42) globulomer and the respective Aβ form [8],binding result [9]
"monoclonal antibody 7E5 (antibody, V domains shown, Mouse monoclonal antibody from hybridoma; also called ML15-7E5.5E12; hybridoma ATCC PTA-7809) VH: EVKLVESGGGLVQPGGSRKLSCAASGFTFSDYEMVWVRQAPGEGLEWVAYISSGSRTIHYADTVKGRFTISRDNPKNTLFLQMSSLRSEDTAMYYCARTLLRLHFDYWGQGTILTVSS VL: DIVMSQSPSSLAVSVGEKVTMSCRSSQSLFYRSNQKNFLAWYQQKPGQSPKLLIYWASTRESGVPDRFTGSGSGTDFTLTISSVKAEDLAVYYCQQYYSYPWTFGGGTKLEIKR",> 100000,no binding,no binding,no binding (tested: antibody 0.2 µg/ml; first dot 1 pmol),> 1000,> 100000,> 100000,1,–
"monoclonal antibody 4B7 (antibody, V domains shown, Mouse monoclonal antibody from hybridoma; also called ML15-4B7.3A6; hybridoma ATCC PTA-7242) VH: EVKLVESGGGLVQPGGSRKLSCAASGFTFSDYEMVWVRQAPGEGLEWVAYISSGSRTIHYADTVKGRFTISRDNPKNTLFLQMSSLRSEDTAMYYCARTLLRLHFDYWGQGTILTVSS VL: DIVMSQSPSSLAVSVGEKVTMSCRSSQSLFYRSNQKNFLAWYQQKPGQSPKLLIYWASTRESGVPDRFTGSGSGTDFTLTISSVKAEDLAVYYCQQYYSYPWTFGGGTKLEIKR",> 100000,no binding,no binding,no binding (tested: antibody 0.2 µg/ml; first dot 1 pmol),> 1000,> 100000,–,1,–
"monoclonal antibody 10C1 (antibody, V domains shown, Mouse monoclonal antibody from hybridoma; also called ML15-10C1.5C6.3H4; hybridoma ATCC PTA-7810) VH: EVKLVESGGGLVQPGGSRKLSCAASGFTFSDYEMVWVRQAPGKGLEWVAYINSGSGTIHYADTVKGRFTISRDNPKNTLFLQMSSLRSEDTAMYYCARTLLRLHFDYWGQGTILTVSS VL: DIVMSQSPSSLAVSVGEKVTMSCKSSQSLFYSRNQKNFLAWYQQKPGQSPKLLIYWASTGESGVPDRFTGSGSGTDFTLTISSVKAEDLAVYYCQQYFSYPWTFGGGTKLEIKR",> 100000,no binding,no binding,no binding (tested: antibody 0.2 µg/ml; first dot 1 pmol),> 1000,> 100000,> 100000,1,–
"monoclonal antibody 7C6 (antibody, V domains shown, Mouse monoclonal antibody from hybridoma; also called ML13-7C6.1D4.4A9.5G8; hybridoma ATCC PTA-7240) VH: EVKLVESGGGLVKPGGSLKLSCAASGFTFSSYAMSWVRQTPAKRLEWVASIHNRGTIFYLDSVKGRFTISRDNVRNTLYLQMSSLRSEDTAIYYCTRGRSNSYAMDYWGQGTSVTVSS VL: DVLVTQSPLSLPVRLGDQASISCRSTQTLVHRNGDTYLEWYLQKPGQSPKSLIYKVSNRFSGVPDRFSGSGSGTDFTLKISRVEAEDLGVYYCFQGSHVPYTFGGGTKLEIKR",> 100000,no binding,no binding,no binding (tested: antibody 0.2 µg/ml; first dot 1 pmol),> 1000,> 100000,> 100000,1,–
"monoclonal antibody 5F7 (antibody, V domains shown, Mouse monoclonal antibody from hybridoma, Protein A purified; also called mAb 5F7; ML15-5F7.5B10) VH: QVQLKQSGAELVRPGTSVKMSCKASGYTFTTFYIHWVKQRPGQGLEWIGMIGPGSGNTYYNEMFKDKATLTVDTSSSTAYMQLSSLTSEDSAVYFCARAKSARAAWFAYWGQGTLVTVSA VL: DVLMTQTPLSLPVSLGDQASISCRSSQSVVQSNGNTYLEWYLQKPGQSPKLLIYKVSNRFSGVPDRFSGSGSGTDFTLKISRVEAEDLGVYYCFQGSHVPPTFGGGTKLEIKR",–,no binding,–,no binding (tested: antibody 0.2 µg/ml; first dot 1 pmol),> 100,–,> 10000,1,binds
"monoclonal antibody 2F2 (antibody, V domains shown, Mouse monoclonal antibody from hybridoma; also called ML15-2F2.3E12; hybridoma ATCC PTA-7408) VH: QVQLKQSGAELVRPGTSVKMSCKASGYTFTTFYIHWVKQRPGQGLEWIGMIGPGSGNTYYNEMFKDKATLTVDTSSSTAYMQLSSLTSEDSAVYFCARAKSARAAWFAYWGQGTLVTVSA VL: DVLMTQTPLSLPVSLGDQASISCRSSQSVVQSNGNTYLEWYLQKPGQSPKLLIYKVSNRFSGVPDRFSGSGSGTDFTLKISRVEAEDLGVYYCFQGSHVPPTFGGGTKLEIKR",–,no binding,–,no binding (tested: antibody 0.2 µg/ml; first dot 1 pmol),> 100,> 10000,> 10000,1,binds
"monoclonal antibody 6A2 (antibody, V domains shown, Mouse monoclonal antibody from hybridoma; also called ML15-6A2.4B10; hybridoma ATCC PTA-7409) VH: QVQLQQSGAELVRPGTSVKMSCKASGYTFTTFYIHWVRQRPGQGLEWIGMIGPGSGNTYYNEMFKDKATLTVDTSSSTAYMQLSSLTSEDSAVYFCARAKSHRAAWFAYWGQGTLVTVSA VL: DVLMTQTPLSLPVSLGDQASISCRSSQSVVQSNGNTYLEWYLQKPGQSPKLLIYKVSNRFFGVPDRFSGSRSGTDFTLKISRVEAEDLGVYYCFQGSHVPPTFGGGTKLEIKR",–,–,–,no binding (tested: antibody 0.2 µg/ml; first dot 1 pmol),> 1000,–,–,–,–
"monoclonal antibody 10F11 (antibody, V domains shown, Mouse monoclonal antibody from hybridoma; also called ML15-10F11.3D9; hybridoma ATCC PTA-7239) VH: QVQLQQSGPELVKPGASVKMSCKASGYTFTSYVMHWVKQRPGQGLEWIGYIYPYNDGTKYNEKFKGKATLTSDKSSSTVYMELSSLTSEDSTVYYCTVEGATWDGYFDVWGTGTTVTVSS VL: not shown",12,–,–,no binding (tested: antibody 0.2 µg/ml; first dot 1 pmol),> 1000,–,–,1,–
"monoclonal antibody 4D10 (antibody, V domains shown, Mouse monoclonal antibody from hybridoma; also called ML13-4D10.3F3; hybridoma ATCC PTA-7405) VH: QVQLKQSGPSLIQPSQSLSITCTVSGFSLTSYGVHWVRQSPGKGLEWLGVIWRGGRIDYNAAFMSRLSITKDNSKSQVFFKMNSLQADDTAIYYCARNSDVWGTGTTVTVSS VL: not shown",29,no binding,–,no binding (tested: antibody 0.2 µg/ml; first dot 1 pmol),> 100,–,–,1,–
